# Measurements reported in the DeepSol protein solubility set.
# Assay: soluble on expression in E. coli; label from the status in PepcDB or PDB records
row,Sequence,soluble on expression in E. coli
1,MPGTEKTQHISLTTQVENRLKHQLSIGALKPGARLITKNIAQELGVSITPVREALLRLVSSSALAVAPAQAFMVPEISLESLLEINTIRTALEEMAVVAAAGKITPDREQTLNALLDEFQQALESGVMEKILLANRAFRFEIYHYADMPTLYAMIEQLWVRLGPSLHFLYDNFKLDDYQNGVNLYRKLLNALVTGDKEASRHCLQNVLQQNVATIKNQYFM,not soluble
2,MAHHHHHHMFMVDTDGSAISYHIPVSPFVPLQHDKIDVTTVNRLANFGMRFAMEHGWCYNRHSGDAHSNYASEAVEEGYVESGEDVTVFFAGVDVELVGEFPKFDGKITPASVFFLGQFWISHVGKSSFGVYGKIFRYEAADEKNKFPIGVFKLTGVNVSKKSRRPVPIPKERAEMLLETMRRHQLNTSLPLVVRIDVADFLSRSGLFTDTTYCKLVDKMATYASVTPLTVTYRREFHIRQSDIDFNRHVNQMALIQFVINTFRSALLDQTTVFPRLLDVGVDAIVGDLLLRRLHIDYIRETPMGHQSVAVALFFAEDSSRDAVIASTPESRGNQLAELCFLAQGIPGDGSPSYIAAVGKLYFFC,not soluble
3,MAKQRVFIAGHRGMVGSAIRRQLEQRGDVELVLRTRDELNLLDSRAVHDFFASERIDQVYLAAAKVGGIVANNTYPADFIYQNMMIESNIIHAAHQNDVNKLLFLGSSCIYPKLAKQPMAESELLQGTLEPTNEPYAIAKIAGIKLCESYNRQYGRDYRSVMPTNLYGPHDNFHPSNSHVIPALLRRFHEATAQKAPDVVVWGSGTPMREFLHVDDMAAASIHVMELAHEVWLENTQPMLSHINVGTGVDCTIRELAQTIAKVVGYKGRVVFDASKPDGTPRKLLDVTRLHQLGWYHEISLEAGLASTYQWFLENQDRFRG,soluble
4,DKMTIEVPVLTFVPVQVSAELENRGCWVKFFDKKNFQGDSLFLSGPATLPRLIGPFGYDWENKVRSVKVGPRANLTIFDNHNYRDEDKFLDAGANVANLSKEMGFFDNFRSMVLNCI,soluble
5,MASTQCVNIQKRDIIRGASDVSWFDVLLEKGACVTISAQDKPSVDLWLDDVIQESLIEGRHYCTKASTSDLKADARCPTQGEATMREEYLDGYVCKRSFSDRGWGNGCGLFGKGSIVGCAKATCGANDIIKSYSYDSPKVKYVIGAEVHQGKLLTNNSTDRIVKTTFTAESEKHTITIADYGSMDFTCRVVASAELSNIRMIELDGHMFNVHEDWLSDLPLPSKISGGSWHGMDRLVVFKEPHAVKMEIQACGDQRPAVFKSLVKAEEVTKTSNSYHLTGGHVDCRVSTLNLRMKGLTYQMCSSSFVWHKRPVATQHGTVAMEVKYKGSDAPCRIPVSVEKEGYNGKNFGNLITANPFAANNEAVVFLELEAPLGVSTIKVGGAVFQWKQEGSSIGKALEHHHHHH,not soluble
6,MGHHHHHHSHMSDAGMPSLSDPGMSLAAYALKHNIQYDVLPGANALTTAFCASGFLEGRFFYAGFLPHKSKERRLKIAKILNALAYLEEKTPVVFYESPHRLLETLKDLNDLAKGMHLFAAKELTKLHQQYYLGEVSQIIERLQQSTIQGEWVLVLLNEKKIEPCMGLSALLELDLPPKIKAKIEAVMTQKNAKELYFQRLLEEKNQ,not soluble
7,MSKDYQSLAKLSPFELKDELIKIASSDGNRLMLNAGRGNPNFLATTPRRAFFRLGLFAAAESELSYSYMTTVGVGGLAKIDGIEGRFERYIAENRDQEGVRFLGKSLSYVRDQLGLDPAAFLHEMVDGILGCNYPVPPRMLNISEKIVRQYIIREMGADAIPSESVNLFAVEGGTAAMAYIFESLKLNGLLKAGDKVAIGMPVFTPYIEIPELAQYALEEVAINADPSLNWQYPDSELDKLKDPAIKIFFCVNPSNPPSVKMDQRSLERVRNIVAEHRPDLMILTDDVYGTFADDFQSLFAICPENTLLVYSFSKYFGATGWRLGVVAAHQQNVFDLALDKLQESEKVALDHRYRSLLPDVRSLKFIDRLVADSRAVALNHTAGLSTPQQVQMALFSLFALMDEADEYKHTLKQLIRRRETTLYRELGMPPLRDENAVDYYTLIDLQDVTAKLYGEAFSEWAVKQSSTGDMLFRIADETGIVLLPGRGFGSNRPSGRASLANLNEYEYAAIGRALRKMADELYAEYSGQAQNLKLAAALEHHHHHH,soluble
8,MGSDKIHHHHHHMLELTDDLRIGHPVIDADHQRLIEIINEFLEHSNEVNPQILHETLKSLLAYGREHFAREEGIQRQCLYPYQQGHSNEHKSLLDQVREIARAYFVAKTKPLNATSVQDVNELLKAWLIGHVKKFDTSMRDWVAPSLDMDAPRIKLASPDLAALIISPNERSRARLADLLSELGASKVLQAEDSITGLGMAFGDPVPDFIFCDLETEPLDGGAFAGALRGSNKAYITRIPLLLLHDAEDAEAIQNAMAAGASGVYPKSFNPTNLGRLLNQLLLR,not soluble
9,MKNKLLVLSLGALCVSQIWESNRASAVVSGEKNPYVSESLKLTNNKNKSRTVEEYKKSLDDLIWSFPNLDNERFDNPEYKEAMKKYQQRFMAEDEALKKFFSEEKKIKNGNTDNLDYLGLSHERYESVFNTLKKQSEEFLKEIEDIKKDNPELKDFNEEEQLKCDLELNKLENQILMLGKTFYQNYRDDVESLYSKLDLIMGYKDEERANKKAVNKRMLENKKEDLETIIDEFFSDIDKTRPNNIPVLEDEKQEEKNHKNMAQLKSDTEAAKSDESKRSKRSKRSLNTQNHKPASQEVSEQQKAEYDKRAEERKARFLDNQKIKKTPVVSLEYDFEHKQRIDNENDKKLVVSAPTKKPTSPTTYTETTTQVPMPTVERQTQQQIIYNAPKQLAGLNGESHDFTTTHQSPTTSNHTHNNVVEFEETSALPGRKSGSLVGISQIDSSHLTEREKRVIKREHVREAQKLVDNYKDTHSYKDRINAQQKVNTLSEGHQKRFNKQINKVYNGK,not soluble
10,MGSDKIHHHHHHMVEVLERLGCETVLPEKQICCGQPTYNSGYSKDSMKTFKNEIDALLSIDADYIVGPSGSCVFMIKEYKDIFKDDPEYGPKAAEIDSKIYEFTQFIYRVLKVVDCGAELDAKVTVHRSCHMTRLIGERTAPFVLLDHVKDIERVPLKNVQLCCGFGGTFSAKRPELSVEMVDEKVKNIVDTDAEILIGTEESCLMNIVGRMNRLGYKIKAMHIAEVLNHNVDINRIKYIKDTDHVVVPANGEGVF,not soluble
11,MNTLFMHCRPGFEGEVCSEIADLAARLDVSGYAKARPDTACAEFICTEADGAERLMNGQRFDTLIFPRQWARGLFLDLPETDRISVILAQLSTFPTCGSLWLEVVDTNDGKELSNFCKKFEAPLRKALTQAGKLVDDPRKPRLLLTFKSGREVFLGLAEADNSAMWPMGIPRLKFPREAPSRSTLKLEEAWHHFIPRDQWDERLSGDMTGVDLGAAPGGWTYQLVRRGMLVTAIDNGPMAESLMDTGLVQHLMADGFTYKPRHPVDWMVCDIVEKPARNAALLETWLGEGLCREAVVNLKLPMKQRYAEVRRLLDRIEEGFQARGVRVSIGCKQLYHDREEVTCHLRRLDVAKAARK,not soluble
12,MGSDKIHHHHHHMETLYLKTLIVTAEKGSFSKAAAELCITQSAVSQRVKFLEERYGCELLDRSGPVMMLTAAGEAVVRKAQAILDIEKTLQDELKKFTGRQRLSICCTPSFGIAHMPKVLNRFMLRNADIVDLKFMFYSPEQAVKGLAEREFDIGIIEHCEDLDLADFHTATLPRDELVFVSAPSLGIPTPLVTIERLFEERLITRKDGCSSKKLLRLNLASIGKDLEGFRSTVVYDDLHLTVDTVLDGGGVAFVSSCLVNKYLENGQLKQHRVEGFCHSRQRTVALSRSKVQDRLVSDFLACLDTVFTDQCHRSSCPT,not soluble
13,MKHLFTRIFLFHLLLIGTVQVTAQNKKSGNPILPGFHADPEVLYSHQTKRYYIYPTSDGFPGWGGSYFKVFSSKNLKTWKEETVILEMGKNVSWANGNAWAPCIEEKKIDGKYKYFFYYSANPTTNKGKQIGVAVADSPTGPFTDLGKPIITSSPTGRGQQIDVDVFTDPVSGKSYLYWGNGYMAGAELNDDMLSIKEETTVVLTPKGGTLQTYAYREAPYVIYRKGIYYFFWSVDDTGSPNYHVVYGTAQSPLGPIEVAKEPIVLIQNPKEEIYGPAHNSILQVPGKDKWYIVYHRINKNHLNDGPGWHREVCIDRMEFNPDGTIKQVIPTP,not soluble
14,MVKIIENKLIDAEPLKDAVLIEGLPGIGHVGRVAAEHIVEEFNGEKVLELYCDDFPPQIVVKNDGTIEYMKNEFYLVKEPVPMVIVLGNTQALSPKGQYVLSEKIVDIAMKYGATKTYTLGGFGIGKISDELKVYVASTSKELSEQHKELGAEFRTDGGSIIGAAGLMLKFSKLKGIEGICLMGETPGYLVDPKSAGNVLEMLSKAIGFEIDMKKLDERAKEMEKFIEKVQMQEQGMQAPQHQDDLSYIG,not soluble
15,MMSLAWPLFRVTEQAALAAWPQTGCGDKNKIDGLAVTAMRQALNDVAFRGRVVIGEGEIDHAPMLWIGEEVGKGDGPEVDIAVDPIEGTRMVAMGQSNALAVMAFAPRDSLLHAPDMYMKKLVVNRLAAGAIDLSLPLTDNLRNVAKALGKPLDKLRMVTLDKPRLSAAIEEATQLGVKVFALPDGDVAASVLTCWQDNPYDVMYTIGGAPEGVISACAVKALGGDMQAELIDFCQAKGDYTENRQIAEQERKRCKAMGVDVNRVYSLDELVRGNDILFSATGVTGGELVNGIQQTANGVRTQTLLIGGADQTCNIIDSLH,soluble
16,HRPKRIESAVISSFSPVINSPMRDYLGKGLDHLATHSRYDMGRLINDTIGKHLPSLFKRFNYRHVSTLDGHEYDQMHYHFSQILELDPDNYLTAGQQIKAPVLFINGAWDEYTSASDATQFSRYLQNCSFSTIEATGHFLDMEHKAACNDSKQALMKFLQ,not soluble
17,MIQFNQVSKSYEDGTKAVDSLHLEIKKGEFFVLIGPSGCGKTTTMKMINRLIETTEGSILIDGKDIQQYNINELRWDIGYVLQQIALFPHMTIAENIAVVPEMRKWSKEKIKARVDELLQMVGLDPDVYRNRMPDELSGGQKQRIGVVRALAANPKIVLMDEPFSALDPLSREQLQKDIVQLQKKIQKTIVFVTHDMQEALSLGDRICIMKEGKVVQLDTPEGIIHNPKNEFVEEFIGNRGRPWYEGKSIEDVLPLDESIRIEGEALSLHSSLQEALVRLRADEVVPVEEKGRYVGALTSRHIVNYIVEQMKERG,not soluble
18,MTGPTPTEAVDITVSVGGFKVGDQNYPINPKITFTNNTGQAIPGGTEFQFDIPVSAPDNAKDQSGGGLKVIASGHTRANNIGGLDGVMHRVSFSLPAWKDLPAGGTYELDMVYYLPISGPANYSVISGGKEFAFKFEQPDLPIGDLNAGTGGGGTTEPGSCDTAGLVTYPNLPQTDLEHHHHHH,soluble
19,MYADRDLPGAGGLAVRVIPCLDVDDGRVVKGVNFENLRDAGDPVELAAVYDAEGADELTFLDVTASSSGRATMLEVVRRTAEQVFIPLTVGGGVRTVADVDSLLRAGADKVAVNTAAIACPDLLADMARQFGSQCIVLSVDARTVPVGSAPTPSGWEVTTHGGRRGTGMDAVQWAARGADLGVGEILLNSMDADGTKAGFDLALLRAVRAAVTVPVIASGGAGAVEHFAPAVAAGADAVLAASVFHFRELTIGQVKAALAAEGITVR,not soluble
